Reference: publication doi:10.1101/2020.05.14.095372

Target: Mature human mitochondrial heat shock protein family D member 1 (HSPD1) (human), P10809
Test: cryo-EM structure
Details: remark: other sources report otherwise

stoichiometry N: 7
B1: Mature human mitochondrial heat shock protein family D member 1 (HSPD1), P10809 27-573 (natural protein)
chain: AKDVKFGADARALMLQGVDLLADAVAVTMGPKGRTVIIEQSWGSPKVTKDGVTVAKSIDLKDKYKNIGAKLVQDVANNTNEEAGDGTTTATVLARSIAKEGFEKISKGANPVEIRRGVMLAVDAVIAELKKQSKPVTTPEEIAQVATISANGDKEIGNIISDAMKKVGRKGVITVKDGKTLNDELEIIEGMKFDRGYISPYFINTSKGQKCEFQDAYVLLSEKKISSIQSIVPALEIANAHRKPLVIIAEDVDGEALSTLVLNRLKVGLQVVAVKAPGFGDNRKNQLKDMAIATGGAVFGEEGLTLNLEDVQPHDLGKVGEVIVTKDDAMLLKGKGDKAQIEKRIQEIIEQLDVTTSEYEKEKLNERLAKLSDGVAVLKVGGTSDVEVNEKKDRVTDALNATRAAVEEGIVLGGGCALLRCIPALDSLTPANEDQKIGIEIIKRTLKIPAMTIAKNAGVEGSLIVEKIMQSSSEVGYDAMAGDFVNMVEKGIIDPTKVVRTALLDAAGVASLLTTAEVVVTEIPKEEKDPGMGAMGGMGGGMGGGMF
